Test results reported in patent US20210196796A1 (SYNTHEKINE, published 2021).
Positions count from the first letter of the chain named.

B1: ΔA1, SQVLKA (ligand)
chain: PTSSSTKKTQLQLSQLLVLLKAILNGINNYKNPKLTRMLTFKFYMPKKATELKHLQCLEEELKPLEEVLNLAQSKNFHLRPRDLISNINVIVLELKGSETTFMCEYADETATIVEFLNRWITFCQSIISTLT
B2: ΔP2, SQVLKA (ligand)
chain: B1 chain with P1A
B3: ΔT7, SQVLKA (ligand)
chain: B1 chain with P1A, T2P, S3T, T6S
B4: SQVLEA (ligand)
chain: APTSSSTKKTQLQLSQLLVLLEAILNGINNYKNPKLTRMLTFKFYMPKKATELKHLQCLEEELKPLEEVLNLAQSKNFHLRPRDLISNINVIVLELKGSETTFMCEYADETATIVEFLNRWITFCQSIISTLT
B5: SQVLLA (ligand)
chain: B4 chain with E22L
B6: SQVLVA (ligand)
chain: B4 chain with E22V
B7: SQVLMA (ligand)
chain: B4 chain with E22M
B8: SQVLSA (ligand)
chain: B4 chain with E22S
B9: SQVLWA (ligand)
chain: B4 chain with E22W
B10: SQVLAA (ligand)
chain: B4 chain with E22A
B11: SQVLGA (ligand)
chain: B4 chain with E22G
B12: SQVLFA (Ref# 079) (ligand)
chain: B4 chain with E22F
B13: SQVLFA (Ref# 073) (ligand)
chain: B4 chain with E22F

target: T1, orthogonal hCD122 receptor (hoRb), hCD122 with H133D and Y134F (human, UniProt P14784 27-550); experiment: cell-based or functional assay
T1 sequence: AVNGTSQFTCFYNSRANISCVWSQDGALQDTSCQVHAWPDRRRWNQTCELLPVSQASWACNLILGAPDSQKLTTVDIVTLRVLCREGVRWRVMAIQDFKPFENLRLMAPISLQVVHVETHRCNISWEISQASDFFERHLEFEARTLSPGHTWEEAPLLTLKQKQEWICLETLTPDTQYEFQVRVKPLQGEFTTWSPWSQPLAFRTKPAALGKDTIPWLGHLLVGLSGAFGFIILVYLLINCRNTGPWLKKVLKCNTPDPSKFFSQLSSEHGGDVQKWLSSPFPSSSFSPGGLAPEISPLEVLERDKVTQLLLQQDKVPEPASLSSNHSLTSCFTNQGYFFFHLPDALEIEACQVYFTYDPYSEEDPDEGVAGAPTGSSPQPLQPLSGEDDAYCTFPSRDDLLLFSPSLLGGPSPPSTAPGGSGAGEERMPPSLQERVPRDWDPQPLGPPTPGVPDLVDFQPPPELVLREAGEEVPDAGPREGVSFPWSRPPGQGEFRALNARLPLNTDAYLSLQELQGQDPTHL
For Relative Proliferation Fold Change 3F8 1:10 in this document: reference of the scale not given here.
For Relative Proliferation Fold Change 3F8 1:2 in this document: reference of the scale not given here.
For Relative Proliferation Fold Change 3F8 1:50 in this document: reference of the scale not given here.
For Relative Proliferation Fold Change NKL 1:10 in this document: reference of the scale not given here.
For Relative Proliferation Fold Change NKL 1:2 in this document: reference of the scale not given here.
For Relative Proliferation Fold Change NKL 1:50 in this document: reference of the scale not given here.

In order of falling “NKL Ortho Proliferation Signal 1:2” value:
1. B2  64000
2. B3  55400
3. B1  33400
4. B4  21100
5. B7  20500
6. B5  16400
7. B8  16000
8. B10  14600
9. B9  14000
10. B11  13500
11. B6  10800

In order of falling “NKL Ortho Proliferation Signal 1:10” value:
1. B2  61900
2. B3  51900
3. B1  27700
4. B7  18600
5. B4  18200
6. B5  16100
7. B8  13000
8. B10  11800
9. B11  11700
10. B9  11100
11. B6  8600

In order of rising “NKL Ortho Proliferation Signal 1:50” value:
1. B6  6590
2. B8  7840
3. B5  8570
4. B11  8730
5. B9  8870
6. B10  9400
7. B4  9480
8. B7  11000
9. B1  13800
10. B3  25300
11. B2  27800

In order of falling “Relative Proliferation Fold Change NKL 1:2” value:
1. B2  4.41 fold
2. B3  3.65 fold
3. B1  2.96 fold
4. B8  2.1 fold
5. B4  1.78 fold
6. B5  1.5 fold
7. B7  1.4 fold
8. B12  1.23 fold
9. B13  1.23 fold
10. B9  1.14 fold
11. B11  1.1 fold
12. B10  1.05 fold
13. B6  0.83 fold

In order of rising “Relative Proliferation Fold Change NKL 1:10” value:
1. B6  0.62 fold
2. B9  0.66 fold
3. B10  0.72 fold
4. B11  0.83 fold
5. B5  1.06 fold
6. B7  1.07 fold
7. B4  1.19 fold
8. B8  1.25 fold
9. B1  1.81 fold
10. B3  3.32 fold
11. B2  3.8 fold

In order of falling “Relative Proliferation Fold Change NKL 1:50” value:
1. B2  1.77 fold
2. B3  1.76 fold
3. B1  0.96 fold
4. B8  0.77 fold
5. B4  0.67 fold
6. B7  0.65 fold
7. B10  0.62 fold
8. B11  0.6 fold
9. B5  0.59 fold
10. B9  0.54 fold
11. B6  0.51 fold

target: T1, orthogonal hCD122 receptor (hoRb), …; experiment: cell-based or functional assay; remark: another data set of the same source

In order of rising “3F8 Ortho Proliferation Signal 1:2” value:
1. B9  7840 cts/min
2. B6  8530 cts/min
3. B10  15900 cts/min
4. B11  18000 cts/min
5. B5  19700 cts/min
6. B7  20800 cts/min
7. B8  22000 cts/min
8. B1  32400 cts/min
9. B4  33400 cts/min
10. B2  40100 cts/min
11. B3  40800 cts/min

In order of falling “3F8 Ortho Proliferation Signal 1:10” value:
1. B4  31600 cts/min
2. B2  31000 cts/min
3. B3  29200 cts/min
4. B1  21900 cts/min
5. B8  14500 cts/min
6. B7  11100 cts/min
7. B5  9730 cts/min
8. B11  9170 cts/min
9. B10  7290 cts/min
10. B6  5590 cts/min
11. B9  4470 cts/min

In order of falling “3F8 Ortho Proliferation Signal 1:50” value:
1. B4  12600 cts/min
2. B2  12400 cts/min
3. B3  10700 cts/min
4. B1  8150 cts/min
5. B8  4060 cts/min
6. B7  3800 cts/min
7. B5  3150 cts/min
8. B10  2940 cts/min
9. B11  2300 cts/min
10. B6  1850 cts/min
11. B9  714 cts/min

In order of falling “Relative Proliferation Fold Change 3F8 1:2” value:
1. B1  171 fold
2. B8  117 fold
3. B11  74.5 fold
4. B10  69.2 fold
5. B7  63.3 fold
6. B5  59.8 fold
7. B3  49.1 fold
8. B2  34.2 fold
9. B4  32.9 fold
10. B6  20.2 fold
11. B9  14.6 fold

In order of falling “Relative Proliferation Fold Change 3F8 1:10” value:
1. B2  29.4 fold
2. B4  28.2 fold
3. B8  23.9 fold
4. B1  22.6 fold
5. B3  21.7 fold
6. B11  15.6 fold
7. B7  14.5 fold
8. B5  13 fold
9. B10  10.1 fold
10. B6  9.6 fold
11. B9  3.35 fold

In order of rising “Relative Proliferation Fold Change 3F8 1:50” value:
1. B9  0.92 fold
2. B6  2.1 fold
3. B10  4.29 fold
4. B5  4.68 fold
5. B11  5.06 fold
6. B7  5.92 fold
7. B8  6 fold
8. B2  10.5 fold
9. B1  11.7 fold
10. B4  13.1 fold
11. B3  15.3 fold
